The results in this text go back to publication PMC4141209.

The assay deals with TlLhpI (OCD-like protein / Δ1-pyrroline-2-carboxylate reductase from Thermococcus litoralis DSM 5473) (Thermococcus litoralis DSM 5473). In words: SEC.

In general, stoichiometry N refers to a count of units in the complex or per binding partner.

“TlLhpI (OCD-like protein / Δ1-pyrroline-2-carboxylate reductase from Thermococcus litoralis DSM 5473) (enzyme)”: the stoichiometry N worked out at 2.
